One may read the Kd as the concentration at which binding is half-saturated. A high value points to lower affinity.

The record followed here is publication PMC9170038, “Crowdsourced RNA design discovers diverse, reversible, efficient, self-contained molecular switches”.

The chains are these.
B1: Eterna 7691982 (Same State - Arginine B) (ssRNA)
RNA: UGACUGGACUGAAGGAGCGAGCGAGACAAAGUCUCGAAAAUUCAGUGAUGUUGAAAUAUAACUCAGGUAGGUCGCAGUCUAGUCU
B2: Eterna 6430181 (Small Loop Exclusion NG 3) (ssRNA)
RNA: UAUAGCCCUAGUUCGAGUGUCUAGGAGGAUAUACAGAGGCAGCCAAAGACAUGAGGAUCACCCAUGUAGAAGGCCUAGACGGUA
B3: Eterna 1615 (Same State - Theophylline A) (ssRNA)
RNA: UGCACCAGUGAUGUUGGUCGGCACCGAGAUACCAGCUGAUCUCUUAGCCCUUGGCAGCUCUUUAUUCGCGUUAUCAGUUUCUUCG
B4: Eterna 7710066 (Exclusion - Tryptophan A) (ssRNA)
RNA: AGCUGGGAUCCUCAGCGUCAAAGACGCAGUCGAGGACCGGUACGGCCGCCACUCGACACGAGGAUCACCCGUGUCAUUCCCAGCA
B5: Eterna 7693586 (Exclusion - Tryptophan B) (ssRNA)
RNA: GGAUAGGACACGGCCGCCACUACCGAGGAUACUCGAAACAUUUCCUCAGAUGAGUGAUGUUCAUCUAGGACCGGGUGUCCUAUCG
B6: Eterna 7685149 (Same State - Theophylline B) (ssRNA)
RNA: AAGUGUUCUAGUGAUACCAGACAAUUUUAUUUUUUCUUUUUUGCUAAGUGAUGUUUAGCAGUCCCUUGGCAGCACUAUUUCACUA
B7: Eterna 7646225 (Same State - Tryptophan A) (ssRNA)
RNA: AAUAACAUGAGGAUCACCCAUGUAAGUAAACGAGGACCGGUACGGCCGCCACUCGAAUAAAUAAAGUACCGGUAAGAUCCAUAGA
B8: Eterna 7694710 (Exclusion - FMN B) (ssRNA)
RNA: GGAUAGGACAGAGGAUAUGGACAGUCUACAAAGUAGGCUGAAAAUCCUUGAAUGGAAGUGAUGUUUCUAGAAGGCUGUCCUAUCG
B9: Eterna 6382764 (Same State NG 3) (ssRNA)
RNA: GGACGUCACAUUAACAUGAGGAUCACCCAUGUGAAAACACAUGAGGAUAUGGAUCCUAAUUGGAUCCAGAAGGCAUGGACGUCC
B10: Eterna 7761084 (Exclusion - FMN A) (ssRNA)
RNA: CGAGUGAUGUUCGUUCGUAUAUUUGGGUGACAGGAUAUGCGGAAACGCAGAAGGGUCGCCUUCGGGUUACCCGAAUUGGCGUUUU
B11: Eterna 10494 (Sensor v3, turn-off variant 2) (ssRNA)
RNA: AGUACUAACACGAAAGUGUUAGUCCAAUAAGCUUGUGAAACAUGAGGAUCACCCAUGUCCUCAUAAGCUCGUCUUAU
B12: Eterna 7687669 (Same State - Tryptophan B) (ssRNA)
RNA: UUUAUUAAGACGGCCGCCACUGAUUCAUAGUGAUGUUAUGAUAUAAUCUUAGUGAUAUUUAUAAACAGGACCGGGUCAAUUAUUA
B13: Eterna 7740495 (Exclusion - Theophylline A) (ssRNA)
RNA: UCCUGCAAUCGUCCACGAAAGUGGAUCGAUACCAGAGUCGAAAGACUCCCUUGGCAGCGAGUGAUGUUCGAAGCAGGUAAAUAAA
B14: Eterna 7727764 (Exclusion - Tryptophan B) (ssRNA)
RNA: AAUAAACAGUCGGCCGCCACUUCAAUAGACUUAUUAUUGAAUGGUGUAGUUCUUCAGUGAUGUUGAAGGACCGGGACUUUCGCGC
B15: Eterna 5954774 (Same State NG 2) (ssRNA)
RNA: GUAGCAUACCGAGGAUAUUCAUAUAAUACAUGAGGAUCACCCAUGUUAUAUAGGCGAAAGCCUUGGGAGAAGGCGGAAUGCUAC
B16: Eterna 6084833 (Exclusion 5) (ssRNA)
RNA: UCAUGCUAAGGAUAUGACGUCGGCUACAUGAGGAUCACCCAUGUGGGUUCGUUAUGGCCAUUAGAAGGUAGCGAUU
B17: Eterna 7727640 (Exclusion - Tryptophan A) (ssRNA)
RNA: GGCCUGGUCGCCUAGUGAUUGUCGGUAGGACGAGGACCGGUACGGCCGCCACUCGGCUUACCCAGUGAUGUUGGGUAUCCGUGGC
B18: Eterna 7692279 (Exclusion - Arginine B) (ssRNA)
RNA: AUUUUUUACAGAAGGAGCGUGUUUUAAUAAUCAUGGUGCUUAGCGAGUGAUGUUCGCUUUACACAGGUAGGUCGCUGUUUAUUUA
B19: Eterna 6093766 (Exclusion NG 2) (ssRNA)
RNA: UGUCGGAGCAGAGGAUAUAUACAUGAGGAUCACCCAUGUAAAUGAAUGAGCUGGAAACAGCAAGUAUAGAAGGCUGCUCCGACA
B20: Eterna 7730299 (Same State - Arginine B) (ssRNA)
RNA: UGUAUGGACUGAAGGAGCGGGUAAAUAACCUGAGGAUCACCCAGGUAAAAGGCGAAAGCCACCCAGGUAGGUCGCAGUCCAUACU
B21: Eterna 7716457 (Exclusion - Theophylline B) (ssRNA)
RNA: CGUUUAUAGCAGGAUACCAGUACCCAUUAUGUACGUUUAUAGUAGAGUGAUGUUCUAAAGUACCCUUGGCAGCUUCCCGUGACCC
B22: Eterna 7751925 (Exclusion - Tryptophan B) (ssRNA)
RNA: GGUAGCAUGGCGGCCGCCACUAAGAGAGUGAUGUUCUCUUAGUUUUUUGAUGUGUUAUCAAUUCUUAGGACCGGGCCAUGCUACC
B23: Eterna 7702469 (Exclusion - Arginine B) (ssRNA)
RNA: GUUACGCAUGGAAGGAGCGCGAAAAUUUAUAGUGAGUGAUGUUCACAAAUAAGAAUAAUAACGCAGGUAGGUCGCCAUGUGUAAC
B24: Eterna 7692524 (Same State - Theophylline A) (ssRNA)
RNA: UGAUAAUGCAGUGAUGUUGCUAGAAACGAUACCAGUUAAGAAAAGAACCCUUGGCAGCGUAAAGUGCGCUCUAAUGAGUGUGCUU
B25: Eterna 7758370 (Same State - Tryptophan B) (ssRNA)
RNA: UGUCAUUGGUCGGCCGCCACUUCAUAAAGAGUGAUGUUCUUAAAGACGGAUCGAAAGAUCUGUCGAAGGACCGGGACCGAUGACU
B26: Eterna 7626312 (Exclusion - Theophylline A) (ssRNA)
RNA: AGAUGCCACUGUGGAUAGCACGAUGCCGAUACCAGCUAGGAAACUAGCCCUUGGCAGCGGUACAUGAGGAUCACCCAUGUAUCCU
B27: Eterna 7696143 (Exclusion - Theophylline B) (ssRNA)
RNA: UGAUACCAGACUGAUACCAGCCAGUGAUGUUGGCUAAUCCAAGAAGGAGUCAAAGACUCCGGCCCUUGGCAGCAGUCUGGUAUCU
B28: Eterna 6416899 (Inverted Same State NG 1) (ssRNA)
RNA: CACAAAUGGCAGAAGGGACGGACGAUAGUGUAGUCAGGAUAUGCAAAUAGGUAUGGACAUGAGGAUCACCCAUGUCCGUCCUUU
B29: Eterna 7755342 (Exclusion - FMN A) (ssRNA)
RNA: AAGUGUCAUUAGACACACCGAUGUAUAAACUAGGAUAUGCUGAUAAGCAGAAGGAGUGAUGUUCCUUUCAUCAUCGGAAUUAAAU
B30: Eterna 7730249 (Same State - Arginine B) (ssRNA)
RNA: UGUAUGGACUGAAGGAGCGCCUCAAAAUAGCAUGAGGAUCACCCAUGCAAGGCGAAAGCCGGGCAGGUAGGUCGCAGUCCAUACU
B31: Eterna 6071251 (Exclusion 3) (ssRNA)
RNA: GCACUGACAGGAUAUACAUGAGGAUCACCCAUGUGACCCUUACAGUACUCGCGUACUGGUAGAAGGGUCUGUGC
B32: Eterna 7675404 (Same State - Tryptophan A) (ssRNA)
RNA: UGGCGAGUGAUGUUCGUUGUUGUAGUGUGUCGAGGACCGGUACGGCCGCCACUCGAGUUGGUUGUUGUUGUUGCUGUUGUUGCUG
B33: Eterna 7721239 (Exclusion - Theophylline B) (ssRNA)
RNA: GGAAUAACCUGGGAUACCAGUCGGAGGACUAGGGAUCGGAGUGAUGUUCUGGGAUGUUUCGGCCCUUGGCAGCUCUGGUUUUCCG
B34: Eterna 6436150 (Inverted Small Loop Exclusion NG 3) (ssRNA)
RNA: AACCGCGACCGGCCUGGCACGCCGAGAAGGGUACGUGACCUGCUUUACAUGAGGAUCACCCAUGUACAGGAUAUCGGAUAGCCG
B35: Eterna 6437027 (Inverted Exclusion NG 3) (ssRNA)
RNA: AUACAUGAGGAUCACCCAUGUUACUGGGUCUAUAUAGAACGUAGAAGGAUGUUUAUACACAUAACAUAGGAUAUACAAUAUUGU
B36: Eterna 6454073 (Inverted Small Loop Exclusion NG 3) (ssRNA)
RNA: CUGUGACGGUGCGCAAGUGGACGUAGAAGGGUCACAUGAGGAUCACCCAUGUGGGCCUGCUAGUGACAGGAUAUACGUUCGUGC
B37: Eterna 7721560 (Exclusion - FMN A) (ssRNA)
RNA: CGAGUGAUGUUCGUUUUAAAAUUUUUUUGACAGGAUAUGCGGAAACGCAGAAGGGUCACCUUUGAGUUAAAAGAAAUUAAAUUUU
B38: Eterna 7702594 (Exclusion - Arginine B) (ssRNA)
RNA: GUUACGCAUGGAAGGAGCGCACUCCGAUUGAUCGACACAGUGAUGUUGUGGUUCGUUCGAAUGCAGGUAGGUCGCCAUGUGUAAC
B39: Eterna 7700638 (Same State - FMN B) (ssRNA)
RNA: ACCUAGUACGUAGGAUAUCGAACAUCAUUUAGUGAGAUCGAGUGAUGUUCGAUCACGUCUUCAGUUCGAGAAGGACGUACUAGGA

For this series, the target named is MS2 coat protein, dlFG mutant (Escherichia phage MS2, UniProt P03612, del68-81insG). The experiment in a line: 4 mM Mg2+; no ligand; RNA-MaP array; 100 mM Tris-HCl pH 7.5, 80 mM KCl, 4 mM MgCl2, 0.1 mg/mL BSA, 1 mM DTT, 0.01 mg/mL yeast tRNA, 0.01% Tween-20; protein 1.5 nM to 3 uM; 37 C (Table S3). Particulars: chain copies: 2; label: tethered by stalled RNA polymerase.
On to B1, for which the dissociation constant (Kd) was greater than 3000 nM. On to B2, for which binding was characterised by a dissociation constant (Kd) of 13.6 nM. In turn, B3 gave an equilibrium dissociation constant (Kd) greater than 3000 nM. In turn, B4 showed a dissociation constant (Kd) of 379 nM. Turning to B5, the Kd is greater than 3000 nM. The molecule B6 displayed a dissociation constant (Kd) greater than 3000 nM. With B7 the figure was 21.3 nM; with B8, greater than 3000 nM. With B9, binding was characterised by a dissociation constant (Kd) of 27.8 nM. In turn, B10 came in with a dissociation constant Kd greater than 3000 nM. With B11 the figure was 15.2 nM. Regarding B12, the Kd was greater than 3000 nM. With B13, the equilibrium dissociation constant (Kd) was greater than 3000 nM. The figure for B14 is greater than 3000 nM; for B15 it is 16.3 nM; for B16 it is 19.6 nM. B17: the Kd is greater than 3000 nM. For B18, the dissociation constant (Kd) was greater than 3000 nM. B19 had a Kd of 14.9 nM. With B20, binding was put at a Kd of 10.9 nM. For the molecule B21, the Kd is greater than 3000 nM. In turn, B22 had a Kd greater than 3000 nM. Consider B23, for which the equilibrium dissociation constant (Kd) is greater than 3000 nM. The figure for B24 is greater than 3000 nM. The molecule B25 gave a dissociation constant Kd greater than 3000 nM.

Take B26: the affinity, expressed as Kd, was 13.2 nM. The figure for B27 is greater than 3000 nM. For B28, the Kd amounted to 15.2 nM. B29 displayed a Kd greater than 3000 nM. In the case of B30, the dissociation constant (Kd) worked out at 12.6 nM. The figure for B31 is 35.4 nM. Molecule B32 displayed a dissociation constant Kd greater than 3000 nM. Turning to B33, the Kd was greater than 3000 nM.

The molecule B34 displayed a dissociation constant (Kd) of 5.68 nM. Regarding B35, binding was characterised by a dissociation constant (Kd) of 33.3 nM. As for B36, the Kd is 19.3 nM.

Take B37: the equilibrium dissociation constant (Kd) is greater than 3000 nM. With B38 the figure was greater than 3000 nM. The molecule B39 registered a Kd greater than 3000 nM.
